In patent US20240294624A1, “ANTI-ERYTHROPOIETIN ANTIBODY” (ANDREMACON S.R.L., priority 2021, published 2024):

Assays:
EphB4 = target: T1, EphB4 (Homo sapiens, UniProt P54760); conditions: Epo for EphB4; cited from earlier work
T1 sequence (P54760 16-987): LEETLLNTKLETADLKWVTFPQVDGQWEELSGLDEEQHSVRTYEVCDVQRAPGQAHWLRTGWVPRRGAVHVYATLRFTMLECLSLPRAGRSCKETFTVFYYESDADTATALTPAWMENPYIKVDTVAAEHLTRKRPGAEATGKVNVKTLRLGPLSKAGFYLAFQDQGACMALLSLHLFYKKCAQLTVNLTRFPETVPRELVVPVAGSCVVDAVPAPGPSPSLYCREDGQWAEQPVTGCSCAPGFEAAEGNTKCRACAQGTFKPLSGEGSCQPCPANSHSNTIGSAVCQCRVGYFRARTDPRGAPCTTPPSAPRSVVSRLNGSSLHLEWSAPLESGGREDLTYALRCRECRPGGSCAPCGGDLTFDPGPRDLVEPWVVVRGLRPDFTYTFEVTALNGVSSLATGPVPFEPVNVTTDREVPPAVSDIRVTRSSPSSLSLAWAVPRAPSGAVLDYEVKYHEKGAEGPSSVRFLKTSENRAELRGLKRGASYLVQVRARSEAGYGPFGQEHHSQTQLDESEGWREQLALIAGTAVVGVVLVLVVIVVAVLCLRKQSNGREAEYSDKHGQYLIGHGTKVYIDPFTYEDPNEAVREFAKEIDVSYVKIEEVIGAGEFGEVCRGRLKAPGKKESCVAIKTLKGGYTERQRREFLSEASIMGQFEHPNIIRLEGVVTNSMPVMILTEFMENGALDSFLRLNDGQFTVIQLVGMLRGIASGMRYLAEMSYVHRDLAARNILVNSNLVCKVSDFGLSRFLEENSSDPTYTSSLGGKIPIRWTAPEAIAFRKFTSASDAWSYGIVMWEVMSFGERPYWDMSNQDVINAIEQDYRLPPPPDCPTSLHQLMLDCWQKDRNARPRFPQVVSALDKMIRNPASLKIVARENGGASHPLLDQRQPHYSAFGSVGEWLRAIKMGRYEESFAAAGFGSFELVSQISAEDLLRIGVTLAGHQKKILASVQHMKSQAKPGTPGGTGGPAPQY

[1] = tested on: primary TMZ-resistant glioblastoma stem cells (GSC-R); assay: MTT viability of chemo-resistant cells; conditions: Homo sapiens, Glioblastoma stem cell, 96 h, read-out: percent survival / viability
Experimental: In detail, GSCs and U87 parental cell line, which are sensitive to TMZ, were first maintained in low doses of TMZ (25 μM) and then successively exposed for two months to incremental doses of 25 μM of TMZ each time (up to 500 μM). After the killing of a majority of the cells, the surviving cells were maintained until a normal rate of growth were obtained. […] Cell viability was assessed by 3-(4,5-Dimethylthiazol-2-yl)-2,5-Diphenyl-tetrazoliumBromide (MTT) assay, as a function of redox potential (FIG. 24). Cells (5×10^3/well) were seeded and cultured in 96-well plate for 24 h in Basal Medium (BM). Then, culture media were replaced with fresh media containing the specific treatments, or in BM as a control condition (CTR).
Test was performed in triplicate after 96 h of treatment, by replacing culture media with 100 μL of fresh media added with 10 μL of MTT 5 mg/ml in D-PBS. After 4 h of incubation, media were removed and cells were lysed with 100 μL of 2-propanol/formic acid (95:5, by vol) for 10 min. Then, absorbance was read at 570 nm in microplate reader.

murine EPO [2] = target: T2, murine EPO (murine, UniProt P07321 27-192, limits assumed); assay: SPR (ProteOn XPR36), anti-EPO (C4) immobilized by amine coupling, EPO as analyte; murine EPO
T2 construct: also called mEPO; m-EPO
T2 sequence (looked up): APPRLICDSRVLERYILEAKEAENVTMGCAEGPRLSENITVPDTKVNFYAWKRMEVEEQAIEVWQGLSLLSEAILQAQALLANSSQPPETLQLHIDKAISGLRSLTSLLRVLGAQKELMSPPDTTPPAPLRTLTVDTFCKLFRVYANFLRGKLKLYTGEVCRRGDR

murine EPO [3] = target: T2, murine EPO; assay: SPR (ProteOn XPR36), anti-EPO (C4) immobilized by amine coupling, EPO as analyte; murine EPO; fitted value

Question: Which Kd (EphB4) does the source give for “Epo: 30.4 kDa glycoprotein, main erythropoietic hormone” here?
Answer: Its Kd is 880 nM.

Question: With `Cn1nnc2c(C(N)=O)ncn2c1=O` [TMZ, Temozolomide] as the molecule, how does the viability at 100 µM [1] read?
Answer: The viability at 100 µM was roughly 93%.

B1: anti-EPO (C4) monoclonal antibody (antibody, V domains shown)
VH: EVKLQESGGGLVQPGGSLKLSCAASGFTFSTYTMSWVRQTPEKRLEWVAYISNGGDRTYYPDTVKGRFTISRDDAKNTLFLQMSSLKSEDTAMYYCARHNITTVPFTMDYWGQGTSVTVSS
VL: DIVLTQSPASLAVSLGQRATISCRASESVDYYGTGLMQWYQQRPGQPPKLLIYGASNVGSGVPARFSGSGSGTDFSLNIHPVEGDDIAMYFCQQTRKVPSTFGGGTKLEIK
notes: also called C4 antibody; anti-EPO (C4) mAB
Question: With B1 as the molecule, how does the koff (murine EPO [2]) read?
Answer: The koff was 0.000669 s⁻¹.

Question: And the kon (murine EPO [2])?
Answer: Its kon is 663 M⁻¹ s⁻¹.

Question: What about the Kd (murine EPO [3]) of the same molecule?
Answer: Its Kd is 1010 nM.
